Assay results published in article PMC12126490, “The HP1 box of KAP1 organizes HP1α for silencing of endogenous retroviral elements in embryonic stem cells” (Nature Communications, 2025).

What was measured:
[1] = system: DNA-induced HP1α phase separated droplets; test: in vitro droplet assay; details: 50 µM HP1α, 0.18 µM 601 DNA
Text: For droplet assays, cDNA of full-length HP1α was cloned into a pET28 expression vector. His-tag fusion HP1α was expressed in E. coli and purified as in ref. [51]. cDNA of the KAP1FR fragment (aa 114–834) was cloned into a pCAG-GFP expression vector, and the P486A/V488A/L490A mutant of GFP-KAP1FR was generated using overlap extension PCR. Purification of GFP-KAP1FR proteins was described in ref. [52].
For the droplet assay, Widom 601 DNA was amplified by PCR using a plasmid coding for 12× 601 DNA with primers as follows: 601 DNA_F: […] and 601 DNA_R: TGCACAGGATGTATATATCTGACAC. HP1α was concentrated to ~10 µg/µl using Amicon concentrators. The buffer changes for both HP1α and GFP-KAP1FR solutions were carried out using Zeba™ Spin Desalting Columns with a buffer containing 20 mM HEPES at pH 7.2, 75 mM KCl, and 1 mM DTT. For visualization of His-tagged-HP1α within the droplets, 500 ng of protein was labeled with the 647 N fluorescent label using the Monolith NT™ Protein Labeling Kit RED-NHS from Nano Temper. To form HP1α droplets, 50 µM of HP1α was incubated with 0.18 µM of 601 DNA for 3 min and dropped into ibidi chamber (µ-Slide 18 Well). Subsequently, 50 ng of the labeled HP1α and 100 ng of GFP-KAP1FR (wild type or mutant) were added into HP1α/DNA droplets. The images of the droplets were collected using a Nikon TiE microscope equipped with a Yokogawa CSU-W1 spinning-disk confocal unit (50 μm pinhole size), an Andor Borealis illumination unit, Andor ALC600 laser beam combiner (405 nm/488 nm/561 nm/640 nm), Andor IXON 888 Ultra EMCCD camera, and a Nikon 100×/1.45 NA oil immersion objective. The size and intensity of HP1α phase-separated droplets were analyzed using ImageJ.

[2] = system: endogenous HP1α in KAP1^−/− ESCs; test: immunofluorescence of endogenous HP1α; format: cell-based; details: KAP1^−/− mouse ESCs stably expressing the GFP-labeled construct, anti-HP1α antibody, DAPI
Method: The constructs coding for GFP-KAP1RF and the P486A/V488A/L490A mutant were transfected into 1 ×10^5 KAP1^−/− mouse ESCs using Lipofectamine 3000 (Invitrogen). Forty-eight hours post-transfection, cells were trypsinized and plated at a colony density in selection medium containing 10 μg/ml blasticidin (Thermo Fisher Sci) for one week. The selection process was repeated once to establish stable GFP-KAP1 expressing cell lines.
For immunostaining, mouse ESCs were cultured on Geltrex-coated coverslips (Life Technologies) in DMEM supplemented with 16% fetal bovine serum, 0.1 mM β-mercaptoethanol (Invitrogen), 2 mM L-glutamine, 1× MEM non-essential amino acids, 100 U/ml penicillin, 100 µg/ml streptomycin (PAA), 2i (1 μM PD032591 and 3 μM CHIR99021 (Axon Medchem, Netherlands) and 1000 U/ml recombinant LIF (Millipore). Coverslips were rinsed twice with PBS (pH 7.4; 140 mM NaCl, 2.7 mM KCl, 6.5 mM Na2HPO4, 1.5 mM KH2PO4), followed by fixation with 3.7% formaldehyde (Sigma) for 10 min. Fixed cells were washed three times (10 min each) with PBST (PBS + 0.01% Tween-20), permeabilized in 0.5% Triton X-100 for 10 min, and washed twice (10 min each) with PBST. Primary and secondary antibodies were prepared in blocking solution (PBST + 3% BSA). […]

B1: GFP-KAP1FR-PVLmut: P486A/V488A/L490A mutant of GFP-KAP1FR impaired in HP1α binding (protein)
chain: VVDCPVCKQQCFSKDIVENYFMRDSGSKAATDAQDANQCCTSCEDNAPATSYCVECSEPLCETCVEAHQRVKYTKDHTVRSTGPAKSRDGERTVYCNVHKHEPLVLFCESCDTLTCRDCQLNAHKDHQYQFLEDAVRNQRKLLASLVKRLGDKHATLQKSTKEVRSSIRQVSDVQKRVQVDVKMAILQIMKELNKRGRVLVNDAQKVTEGQQERLERQHWTMTKIQKHQEHILRFASWALESDNNTALLLSKKLIYFQLHRALKMIVDPVEPHGEMKFQWDLNAWTKSAEAFGKIVAERPGTNSTGPAPMAPPRAPGPLSKQGSGSSQPMEVQEGYGFGSGDDPYSSAEPHVSGVKRSRSGEGEVSGLMRKVARASAERLDLDLTADSQPPVFKVFPGSTTEDYNLIVIERGAAAAATGQPGTAPAGTPGAPPLAGMAIVKEEETEAAIGAPPTATEGPETKPVLMALAEGPGAEGPRLASPSGSTSSGLEVVAPEGTSAPGGGPGTLDDSATICRVCQKPGDLVMCNQCEFCFHLDCHLPALQDVPGEEWSCSLCHVLPDLKEEDGSLSLDGADSTGVVAKLSPANQRKCERVLLALFCHEPCRPLHQLATDSTFSLDQPGGTLDLTLIRARLQEKLSPPYSSPQEFAQDVGRMFKQFNKLTEDKADVQSIIGLQRFFETRMNEAFGDTKFSAVLVEPPPMSLPGAGLSSQELSGGPGDG
modifications: left off: GFP, end not stated, kept
- sequestration of 647N labeled HP1α into droplets ([1]; 20 mM HEPES pH 7.2, 75 mM KCl, 1 mM DTT, 100 ng GFP-KAP1FR, 50 ng labeled HP1α): unable to sequester 647N labeled HP1α into the condensed phase
- localization of GFP-KAP1FR in droplets ([1]; confocal microscopy): concentrated at the periphery of the droplets
- distribution of endogenous HP1α (puncta) [2]: more dispersed and formed smaller and fewer puncta
